Experimental data taken from publication PMC6176016 (2018).

T1: FLAG-tagged multimerized MegaAPRIL
T1 chain: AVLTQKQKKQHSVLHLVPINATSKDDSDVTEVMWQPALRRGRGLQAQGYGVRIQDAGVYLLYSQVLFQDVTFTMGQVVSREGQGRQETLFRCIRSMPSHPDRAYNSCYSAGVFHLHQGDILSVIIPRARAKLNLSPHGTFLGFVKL


Columns and labels:
[1] = biological target: T1, FLAG-tagged multimerized MegaAPRIL; experiment: MST
[2] = biological target: BAFF (as used in microscale thermophoresis) (UniProt Q9Y275 134-285); experiment: MST
Chain of BAFF (as used in microscale thermophoresis) (Q9Y275 134-285): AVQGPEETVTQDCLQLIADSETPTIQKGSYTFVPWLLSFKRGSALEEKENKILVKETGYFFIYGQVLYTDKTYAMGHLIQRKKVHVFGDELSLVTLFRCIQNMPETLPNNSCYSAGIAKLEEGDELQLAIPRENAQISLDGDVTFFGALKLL

Binder	Kd [1] [µM]	Kd [2] [µM]
FLAG-TACI-L (receptor, for MST only: fluorescently labeled at the N-terminus (Monolith NT Protein Labeling Kit RED-NHS)) MSGLGRSRRGGRSRVDQEERFPQGLWTGVAMRSCPEEQYWDPLLGTCMSCKTICNHQSQRTCAAFCRSLSCRKEQGKFYDHLLRDCISCASICGQHPKQCAYFCENKLRSPVNLPPELRRQRSGEVENNSDNSGRYQGLEHRGSEASPALPGLKLSADQVALVYSTLGLCLCAVLCCFLVAVACFLKKRGDPCSCQPRSRPRQSPAKSSQDHAMEAGSPVSTSPEPVETCSFCFPECRAPTQESAVTPGTPDPTCAGRWGCHTRTTVLQPCPHIPDSGLGIVCVPAQEGGPGA	0.567	1.08
FLAG-tagged TACI-S, purified recombinant (receptor, fluorescently labeled at the N-terminus (Monolith NT Protein Labeling Kit RED-NHS)) MSGLGRSRRGGRSRVDQEERWSLSCRKEQGKFYDHLLRDCISCASICGQHPKQCAYFCENKLRSPVNLPPELRRQRSGEVENNSDNSGRYQGLEHRGSEASPALPGLKLSADQVALVYSTLGLCLCAVLCCFLVAVACFLKKRGDPCSCQPRSRPRQSPAKSSQDHAMEAGSPVSTSPEPVETCSFCFPECRAPTQESAVTPGTPDPTCAGRWGCHTRTTVLQPCPHIPDSGLGIVCVPAQEGGPGA	0.185	0.586
